Reference: IntAct's records for PubMed 19494114

B1: Receptor-type tyrosine-protein phosphatase eta (Homo sapiens), Q12913 (parent)
chain: MKPAAREARLPPRSPGLRWALPLLLLLLRLGQILCAGGTPSPIPDPSVATVATGENGITQISSTAESFHKQNGTGTPQVETNTSEDGESSGANDSLRTPEQGSNGTDGASQKTPSSTGPSPVFDIKAVSISPTNVILTWKSNDTAASEYKYVVKHKMENEKTITVVHQPWCNITGLRPATSYVFSITPGIGNETWGDPRVIKVITEPIPVSDLRVALTGVRKAALSWSNGNGTASCRVLLESIGSHEELTQDSRLQVNISGLKPGVQYNINPYLLQSNKTKGDPLGTEGGLDASNTERSRAGSPTAPVHDESLVGPVDPSSGQQSRDTEVLLVGLEPGTRYNATVYSQAANGTEGQPQAIEFRTNAIQVFDVTAVNISATSLTLIWKVSDNESSSNYTYKIHVAGETDSSNLNVSEPRAVIPGLRSSTFYNITVCPVLGDIEGTPGFLQVHTPPVPVSDFRVTVVSTTEIGLAWSSHDAESFQMHITQEGAGNSRVEITTNQSIIIGGLFPGTKYCFEIVPKGPNGTEGASRTVCNRTVPSAVFDIHVVYVTTTEMWLDWKSPDGASEYVYHLVIESKHGSNHTSTYDKAITLQGLIPGTLYNITISPEVDHVWGDPNSTAQYTRPSNVSNIDVSTNTTAATLSWQNFDDASPTYSYCLLIEKAGNSSNATQVVTDIGITDATVTELIPGSSYTVEIFAQVGDGIKSLEPGRKSFCTDPASMASFDCEVVPKEPALVLKWTCPPGANAGFELEVSSGAWNNATHLESCSSENGTEYRTEVTYLNFSTSYNISITTVSCGKMAAPTRNTCTTGITDPPPPDGSPNITSVSHNSVKVKFSGFEASHGPIKAYAVILTTGEAGHPSADVLKYTYEDFKKGASDTYVTYLIRTEEKGRSQSLSEVLKYEIDVGNESTTLGYYNGKLEPLGSYRACVAGFTNITFHPQNKGLIDGAESYVSFSRYSDAVSLPQDPGVICGAVFGCIFGALVIVTVGGFIFWRKKRKDAKNNEVSFSQIKPKKSKLIRVENFEAYFKKQQADSNCGFAEEYEDLKLVGISQPKYAAELAENRGKNRYNNVLPYDISRVKLSVQTHSTDDYINANYMPGYHSKKDFIATQGPLPNTLKDFWRMVWEKNVYAIIMLTKCVEQGRTKCEEYWPSKQAQDYGDITVAMTSEIVLPEWTIRDFTVKNIQTSESHPLRQFHFTSWPDHGVPDTTDLLINFRYLVRDYMKQSPPESPILVHCSAGVGRTGTFIAIDRLIYQIENENTVDVYGIVYDLRMHRPLMVQTEDQYVFLNQCVLDIVRSQKDSKVDLIYQNTTAMTIYENLAPVTTFGKTNGYIA

Variants of: B1
Details: with mk03_human MAPK3, P27361
mk03_human MAPK3, P27361, sequence (P27361 whole entry): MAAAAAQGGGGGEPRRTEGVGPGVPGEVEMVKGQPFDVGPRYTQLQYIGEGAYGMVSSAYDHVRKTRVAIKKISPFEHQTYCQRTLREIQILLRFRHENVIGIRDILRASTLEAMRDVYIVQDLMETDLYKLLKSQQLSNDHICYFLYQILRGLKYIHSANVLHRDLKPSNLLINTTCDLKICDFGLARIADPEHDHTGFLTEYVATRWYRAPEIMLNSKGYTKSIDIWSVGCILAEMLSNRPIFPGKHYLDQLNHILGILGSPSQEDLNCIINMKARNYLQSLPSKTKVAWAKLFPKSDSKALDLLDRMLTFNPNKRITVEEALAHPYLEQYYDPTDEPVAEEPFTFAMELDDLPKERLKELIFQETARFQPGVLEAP

Variant | effect of a mutation on the interaction
K1031A | decreasing interaction
